The target of assay [1] is HLA-A*3101 (human). In words: competition with 125I-labelled probe peptide for purified HLA-A*3101, gel filtration; ratio to standard peptide 941.12. (SEC sorts molecules by how far they enter the pores of the column.)
For assay [2], the target named is HLA-A*3301 (human).
Assay [3] has as its target HLA-A*6801 (human). The assay is described as follows: competition with 125I-labelled probe peptide for purified HLA-A*6801, gel filtration; ratio to standard peptide 941.12.
In assay [4] the target is HLA-A*0301 (human). The assay is described as follows: competitive inhibition of 125I-labelled probe peptide binding to purified HLA, gel filtration. The following applies: scale: ratio.
Assay [5] addresses HLA-A*0301 (human). In words: inhibition of binding of a 125I-labelled probe peptide to purified HLA-A*0301, gel filtration; relative to the standard peptide.
For assay [6], the target named is HLA-A*1101 (human).
In assay [7] the target is HLA-A*6801 (human). The assay is described as follows: competition with 125I probe peptide on purified HLA-A*6801; relative to standard peptide 941.12.
The target in assay [8] is HLA-A*3101 (human). The assay is described as follows: competition with 125I probe peptide on purified HLA-A*3101; relative to standard peptide 941.12.
For assay [9], the target named is HLA-A*0301 (human). The assay is described as follows: competition with 125I probe peptide on purified HLA-A*0301; relative to standard peptide 941.12.
For another assay, the target named is HLA-B*5401 (Human). In words: competition with 125I-labelled probe peptide for purified HLA, gel filtration.
A further assay deals with HLA-B*3501 (Human). The assay is described as above.
For the next assay, the target named is HLA-B*5101 (Human). The assay is described as above.
Assay [10] has as its target HLA-A*0301 (human). The description is as above.
For assay [11], the target named is HLA-A*1101 (human). The assay is described as above.
The target of assay [12] is HLA-A*0301 (human). In words: competition with 125I-labelled probe peptide for purified HLA-A*0301, gel filtration; relative binding against the standard peptide. The following applies: scale: ratio.
For another assay, the target named is HLA-B*0702 (Human). In words: competition with 125I-labelled probe peptide for purified HLA, gel filtration.
For assay [13], the target named is HLA-A*3301 (human). In words: competitive inhibition of 125I-labelled probe peptide binding to purified HLA; relative to standard peptide.
Assay [14] concerns the target HLA-A*3101 (human). The description is as above.
The target in assay [15] is HLA-A*0301 (human). The description is as above.
The mark [16] stands for this setting: remark: other sources report otherwise.

Like-named read-outs stand apart in the source and are kept apart here.

For PLSYQHFR (modifications not checked) [HBV POL 2 peptide PLSYQHFR], the values for the binding affinity ratio (IC50 of standard peptide / IC50 of test peptide) with HLA-A*3101 (human) [1], in the assay with HLA-A*3301 (human) [2] and in the assay with HLA-A*6801 (human) [3] were -0.0009, -0.0009 and 0.0001, respectively.

Consider WLQFRNSK (modifications not checked) [HBV POL 314 peptide WLQFRNSK], for which the binding affinity ratio (relative binding to standard peptide) in the assay with HLA-A*0301 (human) [4] was -0.0002.

In the case of SALNPADDPSR (modifications not checked) [HBV POL 771 peptide …], the binding affinity ratio (IC50 of standard peptide / IC50 of test peptide) with HLA-A*0301 (human) [5] is -0.0004. In addition, the binding affinity ratio (IC50 standard peptide / IC50 test peptide) was -0.0023 with HLA-A*3301 (human) [2]; -0.0003 with HLA-A*1101 (human) [6]; 0.0003 in the assay with HLA-A*6801 (human) [7]; -0.0012 with HLA-A*3101 (human) [8]; -0.0004 with HLA-A*0301 (human) [9].

As to LPLDKGIKPYY (modifications not checked) [HBV POL 123 peptide …], the binding affinity ratio (IC50 of standard peptide / IC50 of test peptide) with HLA-B*5401 (Human) came to 0.0001; with HLA-B*3501 (Human), 0.0009; with HLA-B*5101 (Human) it was 0.0001.

YLVSFGVWIR (modifications not checked) [… (HBV NUC 118)]: the values for the binding affinity ratio (IC50 of standard peptide / IC50 of test peptide) in the assay with HLA-A*0301 (human) [10] and with HLA-A*1101 (human) [11] were 0.0005 and 0.0002, respectively.

As to TSAICSVVR (modifications not checked) [HBV POL 519 peptide …], the binding affinity ratio (IC50 standard peptide / IC50 test peptide) in the assay with HLA-A*3301 (human) [2] (setting [16]) came out at 0.02; with HLA-A*6801 (human) [7] (setting [16]), 0.082; with HLA-A*3101 (human) [8] (setting [16]) it was 0.06; with HLA-A*0301 (human) [9] (setting [16]) it was 0.0005.

In the case of PARDVLCLR (modifications not checked) [HBV X 11 peptide …], the binding affinity ratio (IC50 of standard peptide / IC50 of test peptide) came out at 0.01 with HLA-A*3101 (human) [1] and 0.018 in the assay with HLA-A*3301 (human) [2].

PLTVNEKRR (modifications not checked) [HBV POL 98 peptide …]: the binding affinity ratio (IC50 of standard peptide / IC50 of test peptide) came out at 0.0027 with HLA-A*3301 (human) [2], 0.0005 with HLA-A*1101 (human) [6] and 0.0002 in the assay with HLA-A*6801 (human) [3].

On to TDNSVVLSRK (modifications not checked) [HBV POL 736 peptide …], for which the binding affinity ratio (relative to standard peptide) with HLA-A*0301 (human) [12] was 0.0006.

SAGPCALR (modifications not checked) [HBV X 65 peptide SAGPCALR]: the binding affinity ratio (IC50 standard peptide / IC50 test peptide) in the assay with HLA-A*1101 (human) [6] (setting [16]) was 0.002; with HLA-A*6801 (human) [7] (setting [16]) it was 0.036; with HLA-A*3101 (human) [8] (setting [16]), 0.0029; with HLA-A*0301 (human) [9] (setting [16]) it was -0.0002.

Regarding RTPSPRRR (modifications not checked) [HBV NUC 188 peptide RTPSPRRR], the binding affinity ratio (IC50 of standard peptide / IC50 of test peptide) with HLA-A*0301 (human) [5] is -0.0002. Moreover, the binding affinity ratio (IC50 standard peptide / IC50 test peptide) was 0.0014 with HLA-A*3301 (human) [2]; -0.0002 with HLA-A*1101 (human) [6]; 0.0002 with HLA-A*6801 (human) [7]; 0.0033 with HLA-A*3101 (human) [8]; -0.0002 with HLA-A*0301 (human) [9].

In the case of SAGPCALRF (modifications not checked) [HBV X 65 peptide …], in the assay with HLA-A*0301 (human) [5], the binding affinity ratio (IC50 of standard peptide / IC50 of test peptide) is -0.0003.

As for PPAYRPPNAPI (modifications not checked) [HBV NUC 129 peptide …], the binding affinity ratio (IC50 of standard peptide / IC50 of test peptide) in the assay with HLA-B*5401 (Human) came to 0.0001; with HLA-B*3501 (Human), 0.0001; with HLA-B*0702 (Human) it was 0.0003; in the assay with HLA-B*5101 (Human), 0.0001.

WLWGMDIDPYK (modifications not checked) [HBV NUC 26 peptide …]: the binding affinity ratio (relative binding to standard peptide) with HLA-A*0301 (human) [4] (setting [16]) amounted to 0.003.

For the molecule GMDIDPYK (modifications not checked) [HBV NUC 29 peptide GMDIDPYK], the binding affinity ratio (IC50 of standard peptide / IC50 of test peptide) was -0.0009 with HLA-A*3301 (human) [13], -0.0009 in the assay with HLA-A*3101 (human) [14] and 0.0006 in the assay with HLA-A*0301 (human) [15].

In the case of TAELLAACFAR (modifications not checked) [HBV POL 716 peptide …], the binding affinity ratio (IC50 standard peptide / IC50 test peptide) with HLA-A*3301 (human) [2] (setting [16]) amounted to 0.16; with HLA-A*1101 (human) [6] (setting [16]), 0.0023; in the assay with HLA-A*6801 (human) [7] (setting [16]) it was 0.059; with HLA-A*3101 (human) [8] (setting [16]), 0.0066; in the assay with HLA-A*0301 (human) [9] (setting [16]), 0.0006. Further, the binding affinity ratio (relative to standard peptide) in the assay with HLA-A*0301 (human) [12] (setting [16]) amounted to 0.0006.

TTVVRRRGR (modifications not checked) [HBV NUC 175 peptide …]: in the assay with HLA-A*0301 (human) [12] (setting [16]), the binding affinity ratio (relative to standard peptide) was 0.0008.

Regarding YLPLDKGIKPY (modifications not checked), the binding affinity ratio (relative binding to standard peptide) with HLA-A*0301 (human) [4] was -0.0004.

For the molecule YSLNFMGY (modifications not checked) [HBV POL 580 peptide YSLNFMGY], in the assay with HLA-A*0301 (human) [4], the binding affinity ratio (relative binding to standard peptide) was -0.0002.

As for PLTVNEKR (modifications not checked) [HBV POL 98 peptide PLTVNEKR], the binding affinity ratio (IC50 of standard peptide / IC50 of test peptide) was -0.0009 with HLA-A*3101 (human) [1], -0.0009 with HLA-A*3301 (human) [2], -0.0002 with HLA-A*1101 (human) [6] and 0.0001 in the assay with HLA-A*6801 (human) [3].

For the molecule PLEEELPR (modifications not checked) [HBV POL 20 peptide PLEEELPR], the binding affinity ratio (IC50 of standard peptide / IC50 of test peptide) was -0.0009 with HLA-A*3101 (human) [1], -0.0009 with HLA-A*3301 (human) [2], -0.0002 with HLA-A*1101 (human) [6] and 0.0001 with HLA-A*6801 (human) [3].

Consider SSAGPCALRF (modifications not checked) [HBV X 64 peptide …], for which the binding affinity ratio (IC50 of standard peptide / IC50 of test peptide) with HLA-A*0301 (human) [5] was -0.0003.

SVVLSRKY (modifications not checked) [HBV POL 739 peptide SVVLSRKY]: the binding affinity ratio (relative to standard peptide) with HLA-A*0301 (human) [12] was -0.0002.

In the case of WIRTPPAY (modifications not checked) [HBV NUC 125 peptide WIRTPPAY], the binding affinity ratio (relative binding to standard peptide) with HLA-A*0301 (human) [4] is -0.0002.

Turning to SAICSVVR (modifications not checked) [HBV POL 520 peptide SAICSVVR], in the assay with HLA-A*0301 (human) [5] (setting [16]), the binding affinity ratio (IC50 of standard peptide / IC50 of test peptide) was -0.0002. For the same molecule, the binding affinity ratio (IC50 standard peptide / IC50 test peptide) with HLA-A*3301 (human) [2] (setting [16]) is 0.0081; with HLA-A*1101 (human) [6] (setting [16]), 0.0071; in the assay with HLA-A*6801 (human) [7] (setting [16]), 0.069; in the assay with HLA-A*3101 (human) [8] (setting [16]) it was 0.028; with HLA-A*0301 (human) [9] (setting [16]), -0.0002.

As for PLSYQHFRK (modifications not checked) [HBV POL 2 peptide …], the binding affinity ratio (IC50 of standard peptide / IC50 of test peptide) in the assay with HLA-A*3101 (human) [1] is 0.0006; with HLA-A*1101 (human) [6], 0.0031; with HLA-A*6801 (human) [3] it was 0.0002.

With SPEHCSPHHTA (modifications not checked) [HBV NUC 44 peptide …], the binding affinity ratio (IC50 of standard peptide / IC50 of test peptide) in the assay with HLA-B*5401 (Human) was determined as 0.0011; with HLA-B*3501 (Human), 0.0001; with HLA-B*5101 (Human), 0.0001.

On to YLPLDKGIK (modifications not checked), for which the binding affinity ratio (relative binding to standard peptide) in the assay with HLA-A*0301 (human) [4] amounted to 0.0001.

HLNPNKTKR (modifications not checked) [HBV POL 569 peptide …]: the binding affinity ratio (IC50 of standard peptide / IC50 of test peptide) with HLA-A*0301 (human) [15] is 0.0025.

For YLVSFGVWIR (modifications not checked) [HBV NUC 118 peptide …], the binding affinity ratio (relative binding to standard peptide) with HLA-A*0301 (human) [4] worked out at 0.0005.

These data come from patent US20090311283A1.
